Test results published in patent publication US20180346602A1.

Key:
[1] = target: anti-VEGF/ANG2 antibody (wild-type IgG1 subclass) (human) [IgG part: P01857]; assay: sandwich ELISA assay C; capture on SA plate; tracer FcγRI-Dig; analyte 3 ng/mL
target antibodies [2] = assay: depletion of target antibody from sample; concentration before depletion 3.00 µg/mL
[3] = target: anti-VEGF/ANG2 antibody (wild-type IgG1 subclass) (human) [IgG part: P01857]; assay: sandwich ELISA assay C; capture on SA plate; tracer FcγRI-Dig; analyte 6 ng/mL
[4] = target: anti-IGF-1R antibody (IgG1 subclass with mutations I253A/H310A/H435A) (human) [IgG part: P01857]; assay: sandwich ELISA assay B; capture on SA plate; tracer M1.7.10-Dig; analyte 0 ng/mL (blank)
[5] = target: anti-VEGF/ANG2 antibody (IgG1 subclass with mutations P329G/L234A/L235A/I253A/H310A/H435A) (human) [IgG part: P01857]; assay: as above
[6] = target: anti-P-Selectin antibody (IgG4 subclass with mutations S228P/L235E) (human) [IgG part: P01861]; assay: as above
[7] = target: anti-VEGF/ANG2 antibody (IgG1 subclass with mutations P329G/L234A/L235A) (human) [IgG part: P01857]; assay: as above
[8] = target: anti-VEGF/ANG2 antibody (wild-type IgG1 subclass) (human) [IgG part: P01857]; assay: sandwich ELISA assay C; capture on SA plate; tracer FcγRI-Dig; analyte 2 ng/mL
target antibodies [9] = assay: depletion of target antibody from sample; concentration before depletion 1.00 µg/mL
target antibodies [10] = assay: depletion of target antibody from sample; concentration before depletion 10.00 µg/mL
[11] = target: anti-VEGF/ANG2 antibody (wild-type IgG1 subclass) (human) [IgG part: P01857]; assay: sandwich ELISA assay C; capture on SA plate; tracer FcγRI-Dig; analyte 13 ng/mL
[12] = target: anti-VEGF/ANG2 antibody (wild-type IgG1 subclass) (human) [IgG part: P01857]; assay: sandwich ELISA assay B; capture on SA plate; tracer M1.7.10-Dig; analyte 100 ng/mL
[13] = target: anti-VEGF/ANG2 antibody (wild-type IgG1 subclass) (human) [IgG part: P01857]; assay: sandwich ELISA assay B; capture on SA plate; tracer M1.7.10-Dig; analyte 2 ng/mL
target antibodies [14] = assay: depletion of target antibody from sample; concentration before depletion 0.30 µg/mL
[15] = target: anti-VEGF/ANG2 antibody (wild-type IgG1 subclass) (human) [IgG part: P01857]; assay: sandwich ELISA assay C; capture on SA plate; tracer FcγRI-Dig; analyte 0 ng/mL (blank)
[16] = target: anti-VEGF/ANG2 antibody (IgG1 subclass with mutations P329G/L234A/L235A/I253A/H310A/H435A) [IgG part: P01857]; assay: sandwich ELISA assay E; tracer M1.7.10-Dig; analyte 1) at 0 ng/mL (blank)
[17] = target: anti-VEGF/ANG2 antibody (IgG1 subclass with mutations P329G/L234A/L235A) [IgG part: P01857]; assay: sandwich ELISA assay E; tracer M1.7.10-Dig; analyte 2) at 0 ng/mL (blank)
[18] = target: anti-VEGF/ANG2 antibody (IgG1 subclass with mutations P329G/L234A/L235A) [IgG part: P01857]; assay: sandwich ELISA assay E; tracer M1.7.10-Dig; analyte 2) at 25 ng/mL
[19] = target: anti-Dig antibody (IgG1 subclass with mutations P329G/L234A/L235A) [IgG part: P01857]; assay: sandwich ELISA assay D; tracer M1.19.31-Dig; analyte conc. not printed (row 4 of 8)
[20] = target: anti-Dig antibody (IgG1 subclass with mutations P329G/L234A/L235A) [IgG part: P01857]; assay: sandwich ELISA assay D; tracer M1.19.31-Dig; analyte conc. not printed (row 5 of 8)
[21] = target: anti-VEGF/ANG2 antibody (IgG1 subclass with mutations P329G/L234A/L235A) [IgG part: P01857]; assay: sandwich ELISA assay E; tracer M1.7.10-Dig; analyte 2) at 12.5 ng/mL
[22] = target: anti-Dig antibody (IgG1 subclass with mutations P329G/L234A/L235A) [IgG part: P01857]; assay: sandwich ELISA assay D; tracer M1.7.10-Dig; analyte conc. not printed (row 1 of 8)
[23] = target: anti-VEGF/ANG2 antibody (IgG1 subclass with mutations P329G/L234A/L235A/I253A/H310A/H435A) [IgG part: P01857]; assay: sandwich ELISA assay E; tracer M1.7.10-Dig; analyte 1) at 1.5625 ng/mL
[24] = target: anti-Dig antibody (IgG1 subclass with mutations P329G/L234A/L235A) [IgG part: P01857]; assay: sandwich ELISA assay D; tracer M1.7.10-Dig; analyte conc. not printed (row 7 of 8)
[25] = target: anti-Dig antibody (IgG1 subclass with mutations P329G/L234A/L235A) [IgG part: P01857]; assay: sandwich ELISA assay D; tracer M1.7.10-Dig; analyte conc. not printed (row 5 of 8)
[26] = target: anti-VEGF/ANG2 antibody (IgG1 subclass with mutations P329G/L234A/L235A) [IgG part: P01857]; assay: sandwich ELISA assay E; tracer M1.7.10-Dig; analyte 2) at 6.25 ng/mL

signal [OD405 nm] [1] [OD405 nm]	concentration after depletion (target antibodies [2]) [µg/mL]	recovery [%] (target antibodies [2])	signal [OD405 nm] [3] [OD405 nm]	signal [OD405 nm] [4] [OD405 nm]	signal [OD405 nm] [5] [OD405 nm]	signal [OD405 nm] [6] [OD405 nm]	signal [OD405 nm] [7] [OD405 nm]	signal [OD405 nm] [8] [OD405 nm]	concentration after depletion (target antibodies [9]) [µg/mL]	recovery [%] (target antibodies [9])	concentration after depletion (target antibodies [10]) [µg/mL]	recovery [%] (target antibodies [10])	signal [OD405 nm] [11] [OD405 nm]	signal [OD405 nm] [12] [OD405 nm]	signal [OD405 nm] [13] [OD405 nm]	concentration after depletion (target antibodies [14]) [µg/mL]	recovery [%] (target antibodies [14])	signal [OD405 nm] [15] [OD405 nm]	signal [OD405 nm] [16] [OD405 nm]	also measured	Binder
0.069	0.0023	0.008	0.064	0.037	0.047	0.038	0.038	0.077	0.0003	0.031	0.0005	0.005	0.07	0.061	0.036	0.0001	0.039	0.069	–	–	anti-AAA variant Fc-region antibody M1.6.22 (antibody, V domains shown) VH: EVQLVESGGDLVKPGGSLKLSCAASGFTFSSYGMSWVRQTPDKRLEWVATISSGGSYIYYPDSVKGRFTISRDNAKNTLYLQMSSLKSEDTAMYYCARLGMITTGYAMDYWGQGTSVTVSS VL: DVLMTQTPLSLPVSLGDQASISCRSSQTIVHSTGHTYLEWFLQKPGQSPKLLIYKVSNRFSGVPDRFSGSGSGTDFTLKISRVEAEDLGVYYCFQGSHVPYTFGGGTKLEIK
–	0.0023	0.078	–	0.045	0.035	0.049	0.038	–	0.0007	0.067	0.0017	0.017	–	–	–	0.0002	0.065	–	0.027	signal [OD405 nm] [17]: 0.027 OD405 nm; signal [OD405 nm] [18]: 1.48 OD405 nm; signal 10% cynomolgus serum [OD405 nm] [19]: 0.162 OD405 nm; signal 10% human serum [OD405 nm] [19]: 1.73 OD405 nm; signal buffer [OD405 nm] [19]: 0.037 OD405 nm; signal 10% cynomolgus serum [OD405 nm] [20]: 0.105 OD405 nm; signal 10% human serum [OD405 nm] [20]: 1.71 OD405 nm; signal buffer [OD405 nm] [20]: 0.036 OD405 nm; signal [OD405 nm] [21]: 0.96 OD405 nm; signal 10% cynomolgus serum [OD405 nm] [22]: 2.12 OD405 nm; signal 10% human serum [OD405 nm] [22]: 2.66 OD405 nm; signal buffer [OD405 nm] [22]: 0.053 OD405 nm; signal [OD405 nm] [23]: 0.224 OD405 nm; signal 10% cynomolgus serum [OD405 nm] [24]: 0.052 OD405 nm; signal 10% human serum [OD405 nm] [24]: 2.53 OD405 nm; signal buffer [OD405 nm] [24]: 0.029 OD405 nm; signal 10% cynomolgus serum [OD405 nm] [25]: 0.096 OD405 nm; signal 10% human serum [OD405 nm] [25]: 2.49 OD405 nm; signal buffer [OD405 nm] [25]: 0.031 OD405 nm; signal [OD405 nm] [26]: 0.577 OD405 nm	anti-variant (human) Fc-region antibody M1.3.17 (antibody, V domains shown) VH: EVKLLESGGGLVQPGGSLKLSCAASGIDFRRYWMNWVRQAPGKGLEWIGEIDPDSSTINYTPSLKDKFIISRDNAKNTMYLQMRKVRSEDTALYYCARPYDYGAWFAYWGQGTLVTVSA VL: QAVVTQESALTTSPGETVTLTCRSTTGAVTTSNYANWVQEKPDHLFTGLIGGTNKRAPGVPARFSGSLIGDKAALTITGAQTEDEAIYFCALWYSDHWVFGGGTKLTVL
0.053	–	–	0.057	0.04	0.049	0.035	0.046	0.058	–	–	–	–	0.057	0.047	0.034	–	–	0.073	0.025	signal [OD405 nm] [17]: 0.028 OD405 nm; signal [OD405 nm] [18]: 1.39 OD405 nm; signal 10% cynomolgus serum [OD405 nm] [19]: 0.173 OD405 nm; signal 10% human serum [OD405 nm] [19]: 1.43 OD405 nm; signal buffer [OD405 nm] [19]: 0.037 OD405 nm; signal 10% cynomolgus serum [OD405 nm] [20]: 0.078 OD405 nm; signal 10% human serum [OD405 nm] [20]: 1.33 OD405 nm; signal buffer [OD405 nm] [20]: 0.033 OD405 nm; signal [OD405 nm] [21]: 0.884 OD405 nm; signal 10% cynomolgus serum [OD405 nm] [22]: 2.37 OD405 nm; signal 10% human serum [OD405 nm] [22]: 2.74 OD405 nm; signal buffer [OD405 nm] [22]: 0.062 OD405 nm; signal [OD405 nm] [23]: 0.208 OD405 nm; signal 10% cynomolgus serum [OD405 nm] [24]: 0.041 OD405 nm; signal 10% human serum [OD405 nm] [24]: 2.44 OD405 nm; signal buffer [OD405 nm] [24]: 0.034 OD405 nm; signal 10% cynomolgus serum [OD405 nm] [25]: 0.094 OD405 nm; signal 10% human serum [OD405 nm] [25]: 2.41 OD405 nm; signal buffer [OD405 nm] [25]: 0.031 OD405 nm; signal [OD405 nm] [26]: 0.528 OD405 nm	anti-variant (human) Fc-region antibody M1.7.24 (antibody, V domains shown) VH: EVKLLESGGGLVQPGGSLKLSCAASGFDFSRYWMNWVRQAPGKGLEWIGEITPDSSTINYTPSLKDKFIISRDNAKNTLYLQMIKVRSEDTALYYCVRPYDYGAWFASWGQGTLVTVSA VL: QAVVTQESALTTSPGETVTLTCRSSTGAVTTSNYANWVQEKPDHLFTGLIGGTNKRAPGVPARFSGSLIGDKAALTITGAQTEDEAIYFCALWYSNHWVFGGGTKLTVL
